These results are taken from PMC6193743, “Phosphoglucomutase 1 inhibits hepatocellular carcinoma progression by regulating glucose trafficking”.

Series [1] addresses T1, HIS-CNBP (Homo sapiens, UniProt P62633 1-177). Nature of the series: competition; unlabeled G20 competes with biotin-G20; Chemiluminescent EMSA Kit (Thermo) binding buffer, room temperature, 20 min, 5% polyacrylamide gel; salt and pH not stated. Particulars: protein: recombinant; tags: His (pET-28a); potential G4.
Series [2] addresses T1, HIS-CNBP. Nature of the series: EMSA; Chemiluminescent EMSA Kit (Thermo) binding buffer, room temperature, 20 min, 5% polyacrylamide gel; salt and pH not stated. Particulars: protein: recombinant; tags: His (pET-28a); potential G4. For orientation: Mobility shift assays separate free from complexed probe on a gel.

T1 sequence (P62633 whole entry): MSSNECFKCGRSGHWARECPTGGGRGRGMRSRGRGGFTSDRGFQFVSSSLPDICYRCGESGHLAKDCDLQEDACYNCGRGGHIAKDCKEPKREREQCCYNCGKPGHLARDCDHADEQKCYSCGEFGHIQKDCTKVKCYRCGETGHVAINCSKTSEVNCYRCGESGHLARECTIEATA

Regarding GGGCTGGCGCGGAGGGAGGG (ssDNA) [G20 unlabeled], the binding result with HIS-CNBP [1] is “binds”. For GGGCTGGCGCGGAGGGAGGG (ssDNA) [Biotin-G20], the binding result with HIS-CNBP [2] is reported as “binds”.
